Data set [1] concerns the target T1, UAP56 (Arabidopsis thaliana, UniProt Q56XG6 1-427).
T1 sequence: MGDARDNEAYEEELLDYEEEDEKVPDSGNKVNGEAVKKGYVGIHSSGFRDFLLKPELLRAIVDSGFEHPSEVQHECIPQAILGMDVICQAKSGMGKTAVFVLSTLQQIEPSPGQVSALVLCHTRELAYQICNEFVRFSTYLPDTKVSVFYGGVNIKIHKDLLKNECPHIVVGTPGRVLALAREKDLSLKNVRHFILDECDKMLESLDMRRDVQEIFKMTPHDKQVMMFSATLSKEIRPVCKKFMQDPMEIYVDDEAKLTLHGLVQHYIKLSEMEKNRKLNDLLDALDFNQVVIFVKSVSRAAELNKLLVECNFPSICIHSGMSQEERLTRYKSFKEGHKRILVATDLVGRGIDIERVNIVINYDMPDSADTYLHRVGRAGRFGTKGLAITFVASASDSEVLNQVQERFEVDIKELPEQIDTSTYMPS
The experiment in a line: EMSA; 0.25-5 uM protein; two complexes; less efficient than RNA; MST: 50 nM labelled oligonucleotide in EMSA buffer (composition cited, ref 44), 28 C, Hill fit; EMSA: 32P probe, PAGE, same cited protocol; salt and pH not given. The following applies: protein: recombinant; tags: 6xHis (pQE9); label: 32P; blunt.

For data set [2], the target named is T1, UAP56. The experiment in a line: MST; MST: 50 nM labelled oligonucleotide in EMSA buffer (composition cited, ref 44), 28 C, Hill fit; EMSA: 32P probe, PAGE, same cited protocol; salt and pH not given. The following applies: protein: recombinant; tags: 6xHis (pQE9); label: fluorescent; blunt. On the technique in general: A gel shift assay detects complexes by their altered migration in electrophoresis.

In data set [3] the target is T2, Df31 (Decondensation Factor 31) (Drosophila, UniProt O16043 1-183).
T2 sequence: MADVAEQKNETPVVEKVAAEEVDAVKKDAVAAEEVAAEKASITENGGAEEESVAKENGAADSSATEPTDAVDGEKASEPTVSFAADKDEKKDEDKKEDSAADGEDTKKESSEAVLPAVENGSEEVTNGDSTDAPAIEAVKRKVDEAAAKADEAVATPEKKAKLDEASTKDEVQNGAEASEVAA
Put plainly: MST; up to 411 uM protein; MST: 50 nM labelled oligonucleotide in EMSA buffer (composition cited, ref 44), 28 C, Hill fit; EMSA: 32P probe, PAGE, same cited protocol; salt and pH not given. The following applies: protein: recombinant; label: fluorescent; blunt.

In the next data set the target is T3, GST-UAP56 (Arabidopsis thaliana (Mouse-ear cress), UniProt Q9LFN6).
T3 chain: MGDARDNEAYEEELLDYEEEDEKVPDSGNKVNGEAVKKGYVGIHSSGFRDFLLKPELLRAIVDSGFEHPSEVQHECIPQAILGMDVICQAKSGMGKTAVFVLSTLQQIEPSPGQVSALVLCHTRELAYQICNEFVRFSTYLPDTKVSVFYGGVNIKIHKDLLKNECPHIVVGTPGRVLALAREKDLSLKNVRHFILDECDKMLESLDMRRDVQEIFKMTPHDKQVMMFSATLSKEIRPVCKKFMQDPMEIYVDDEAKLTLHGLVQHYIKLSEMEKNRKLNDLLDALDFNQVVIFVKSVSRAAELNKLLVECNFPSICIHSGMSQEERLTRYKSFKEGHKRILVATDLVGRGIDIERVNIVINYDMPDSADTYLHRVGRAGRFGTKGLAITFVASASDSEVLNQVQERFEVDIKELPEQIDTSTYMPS
Put plainly: GST pull-down; ATP present.

Data set [4] has as its target T1, UAP56. The experiment in a line: EMSA; 0.25-5 uM protein; single complex; MST: 50 nM labelled oligonucleotide in EMSA buffer (composition cited, ref 44), 28 C, Hill fit; EMSA: 32P probe, PAGE, same cited protocol; salt and pH not given. Particulars: protein: recombinant; tags: 6xHis (pQE9); label: 32P; blunt.

Six molecules from publication PMC3608606, “Arabidopsis DEAD-Box RNA Helicase UAP56 Interacts with Both RNA and DNA as well as with mRNA Export Factors” can be followed below.

By Kd is commonly meant a measure of binding affinity in units of concentration.

B1: D25ds (dsDNA)
DNA 1: AAAACAAAATAGCACCGTAAAGCAC
DNA 2: GTGCTTTACGGTGCTATTTTGTTTT
For B1, in the data set with UAP56 [1], the binding result is on record as “binds”.

B2: D29ds (dsDNA)
DNA 1: CCTCCTTTTTTCTTTTTTTTTTTTTTTCT
DNA 2: AGAAAAAAAAAAAAAAAGAAAAAAGGAGG
As to B2, in the data set with UAP56 [2], the dissociation constant Kd is 6.5 ± 0.75 µM. Further, the binding result in data set [3] was “no binding”.

B3: 6xHis-HMGB2 (protein)
chain: MKGAKSKTETRSSKLSVTKKPAKGAGRGKAAAKDPNKPKRPASAFFVFMEDFRETFKKENPKNKSVATVGKAAGDKWKSLSDSEKAPYVAKAEKRKVEYEKNIKAYNKKLEEGPKEDEESDKSVSEVNDEDDAEDGSEEEEDDD
Turning to B3, the binding result with GST-UAP56 is on record as “no binding”.

B4: 6xHis-MOS11 (protein)
chain: MATNGEKVTATVVNGGGLSTGENPKKIVDLNTTELDRTDDILDGEVKGFSDSGEKKEETDSNGIGSTAGVDSGDISPVDDIQKKIRRAERFGVSVKLTEEEKRNSRAERFGTVAAAVVNGSEGTKKAEELKRKARADRFGVPSATSTTDKTEEEAKKKARLARFGKETKVDSAEENKRKARALRFSKEASADASSDLPEKQIIGKEAAVSGSAA
On to B4, for which the binding result with GST-UAP56 is given as “binds”.

B5: R29ds (dsRNA)
RNA 1: CCUCCUUUUUUCUUUUUUUUUUUUUUUCU
RNA 2: AGAAAAAAAAAAAAAAAGAAAAAAGGAGG
On to B5, for which the dissociation constant Kd with UAP56 [2] came to 51.5 ± 5.3 µM.

B6: R25ds (dsRNA)
RNA 1: AAAACAAAAUAGCACCGUAAAGCAC
RNA 2: GUGCUUUACGGUGCUAUUUUGUUUU
B6: in the data set with UAP56 [4], the binding result is reported as “binds”.
